Data taken from the supplement of paper PMC10567573.

B1: TFE3 (parent)
chain: FHLGLEDILMEEEEGVVGGLSGGA
B2: ADD1 (parent)
chain: FASDGDSGTCSPLRHSFQKQQREK

Variants of: B1
Assay: protein stability index of a GFP-peptide fusion (GPS, HEK-293T) (PSI 1-6); higher = more stable
Details: c terminus: a fixed tail appended
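Note: lentivirally expressed fusions sorted by FACS into six bins by GFP to DsRed ratio, PSI derived from sequencing read proportions per bin multiplied by bin number.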

Protein stability index: each site, then its substitutions
L20: D 4.92; Q 4.47; E 4.99; N 4.59; R 3.99; S 4.52; Y 3.41; C 3.91
G22: N 3.72; V 3.9; Y 2.28; M 3.59; E 4.01; Q 3.67; S 3.57
E11: A 3.08; R 3.33; M 1.82; S 2.95; V 2.67; C 2.6; G 2.61; Y 2.38; P 2.7; N 3.11
G18: T 3.5; I 3.35; A 3.64; Q 4.23; M 3.6; N 3.77
G19: F 2.69; N 3.84; H 3.47; A 3.97; V 3.22
V17: L 3.61; T 3.95; N 4.76; D 4.44; Y 3.03; P 3.63; H 3.7; F 2.88; Q 3.69
E6: D 3.58; A 2.67; C 2.55; Y 2.31; V 2.34; G 2.58
I8: F 3.17; A 4.33; W 3.24; K 4.31; L 3.78; N 4.25; C 4.03; M 3.58; T 3.88; E 4.72; Y 3.99
E14: C 2.73; I 2.22; A 3.17; F 1.78; R 3.55
S21: A 3.9; V 3.81; L 3.01; I 3.27; K 3.48; M 3.54; E 4.65; W 2.3
G23: W 2.15; H 3.43
L3: D 5.27; Y 3.56; E 5.06; R 4.14; T 4.5
G15: Y 3.04; V 3.64; F 2.42; I 2.9; K 4.11; H 3.25; W 2.3; T 3.51; Q 4.23
A24: S 3.82; Q 4.24; I 2.66; T 3.52; F 2.39; W 1.75
G4: I 2.1; S 3.94; Y 1.86; M 2.5; L 2.46; F 2.01; K 2.23; D 3.99; R 2.5; V 2.13
L9: I 3.7; G 4.43; N 4.33; C 4.06; V 4.11; P 4.21; D 4
M10: E 4.27; R 3.23; W 3.57; D 4.13; T 3.88; Y 3.62; A 4; G 4.02; I 3.81
V16: N 3.68; D 4.07; R 3.52; S 3.82; Q 4.29; H 3.76; P 3.08; Y 3.34
E12: D 3.77; T 3.72; R 2.47; W 1.76; K 3.2; F 2.14; C 2.83
H2: G 4.41; C 3.96; R 4.16; T 4.23; S 4.27; N 4.84; E 3.95; V 2.75; L 3.46
L5: M 3.46; I 3.7; D 4.38; V 4.53
F1: P 4.88; V 4.56; Q 5.15; R 4.44; I 4.57; C 4.89; K 5.06; E 4.53; L 4.36
E13: C 2.16; L 2.37; I 1.88; V 2.46; S 3.34; Q 3.4
D7: M 1.65; C 2.34; Q 3.19; F 2.28; N 3.04; V 2.89; S 3.31; H 2.88; E 3.56

Variants of: B2
Assay: as above
Details: c terminus: a fixed tail appended

Protein stability index of substitutions, site by site:
S16: Y 3.88; R 3.89; N 4.35; Q 4.27; P 2.28; M 2.46; W 2.75; V 2.31; L 3.17
Q21: E 3.84; M 3.48; H 3.4; K 3.75; W 3.49; L 3.26; T 3.99; A 3.85; G 3.94; F 3.89; C 3.57; I 3.42; Y 3.17; N 4.04; P 3.67; S 3.64; R 3.75; V 3.06; D 2.81
K24: L 3.15; I 3.17; P 3.42; M 2.46; T 3.88; A 2.92; C 3.41; H 3.25; G 3.41; V 3.13; R 3.14; Y 2.83; F 2.96; Q 3.82; W 3.08; D 3.83; S 3.4; E 4.01; N 3.57
Q18: E 3.88; R 3.81; L 3.73; V 2.97; Y 3.31; C 2.62; K 3.31; W 1.62; P 3.84; M 3.13; F 3.16; A 2.75; T 3.4; I 3.33; D 3.83; H 3.13; N 4; G 3.33; S 3.52
F17: T 3.46; K 3.95; V 3.71; M 3.95; I 3.87; E 4.34; G 3.44; Y 3.79; H 3.65; N 4.42; R 4.1; L 4.71; A 3.68; D 4.62; W 3.72; C 4.17; Q 4.52; S 4.47; P 4.82
Q20: L 2.69; C 2.97; A 4.18; E 4.16; I 3.2; K 3.96; S 4.55; V 3.71; W 3.22; N 3.65; Y 2.65; P 3.65; R 4.05; F 2.8; M 3.07; D 4.23; T 4.07; H 3.71; G 3.98
R22: I 3.68; A 3.68; F 3.63; D 4.51; N 3.42; L 3.27; Q 3.84; H 3.84; E 4.23; V 3.35; S 4.21; P 3.57; Y 4.09; C 3.57; M 3.77; K 4.57; W 3.28; G 4.24; T 3.48
E23: T 3.67; K 4.34; Y 3.25; C 3.37; P 3.29; S 3.66; N 3.6; L 3.57; Q 4.04; D 3.11; H 3.66; R 3.79; V 3.58; I 2.76; W 2.94; F 2.74; G 3.21; A 3.7
K19: Y 3.62; A 2.85; H 4.43; D 3.61; F 3.01; N 3.08; T 3.11; I 3.17; C 1.66; S 3.23; W 1.8; G 3.54; R 3.19; L 2.76; Q 4.53; E 3.71; P 3.09; M 3.61
